According to patent publication US20200392227A1 (LYVGEN BIOPHARMA, published 2020):
Like-named read-outs stand apart in the source and are kept apart here.

T1: human FcRIIA protein (MednaBio, E1033) (human, UniProt P12318 34-218, limits assumed)
T1 construct: Bought; also called FcγRIIA
T1 sequence (looked up): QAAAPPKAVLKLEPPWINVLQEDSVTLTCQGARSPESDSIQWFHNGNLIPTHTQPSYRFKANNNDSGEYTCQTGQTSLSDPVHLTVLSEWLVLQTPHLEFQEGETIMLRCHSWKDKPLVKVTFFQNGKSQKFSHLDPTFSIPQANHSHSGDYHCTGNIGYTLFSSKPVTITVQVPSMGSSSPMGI

T2: human FcRIIB/C protein (MednaBio, E1034) (human, UniProt P31994 43-217, limits assumed)
T2 construct: Bought as FcRIIB/C; also called FcγRIIB; CD32B
T2 sequence (looked up): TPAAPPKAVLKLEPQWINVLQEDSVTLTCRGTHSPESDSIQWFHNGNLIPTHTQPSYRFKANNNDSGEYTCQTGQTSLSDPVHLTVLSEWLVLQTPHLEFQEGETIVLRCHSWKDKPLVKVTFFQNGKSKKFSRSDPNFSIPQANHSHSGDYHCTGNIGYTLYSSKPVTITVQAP

T3: human FcγRIIC expressed on CHO cells (human, UniProt P31995 43-323)
T3 construct: whole, on cells
T3 sequence (looked up): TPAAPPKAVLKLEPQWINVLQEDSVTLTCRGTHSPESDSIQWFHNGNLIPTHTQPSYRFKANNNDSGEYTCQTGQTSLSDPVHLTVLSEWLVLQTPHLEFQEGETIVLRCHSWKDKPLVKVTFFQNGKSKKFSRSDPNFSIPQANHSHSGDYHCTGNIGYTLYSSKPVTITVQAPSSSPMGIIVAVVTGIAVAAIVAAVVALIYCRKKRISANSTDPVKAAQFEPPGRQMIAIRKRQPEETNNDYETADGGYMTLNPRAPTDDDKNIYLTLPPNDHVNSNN


Tests used:
[1] = molecular target: T1, human FcRIIA protein (MednaBio, E1033); assay: BLI
How it was run: (§1)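 Binding was measured by biolayer interferometry on an Octet Red96 System. Commercial human Fc receptor proteins were loaded at 20 μg/mL onto anti-penta-HIS biosensors, which were then dipped into an 8-point 1:3 dilution series of test IgG starting at 300 nM in PBS with 0.1% BSA and 0.02% Tween-20, at pH 7.2 for Fcγ receptors and pH 6 for FcRn. Kd, kon and koff were obtained by global fitting, with data fitted to a 1:1 binding model.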

[2] = molecular target: T2, human FcRIIB/C protein (MednaBio, E1034); assay: BLI
How it was run: as §1

[3] = molecular target: T4, human FcRIIIB protein (MednaBio, E1037) (human, UniProt O75015 17-200); assay: BLI
T4 construct: Bought; also called FcγRIIIB; FcgRIIIB
How it was run: as §1

[4] = molecular target: T5, human FcRn protein (MednaBio, E1032) (human, UniProt P55899 24-297; P61769 21-119); assay: BLI
T5 construct: Bought; assays at pH 6
How it was run: as §1

[5] = molecular target: T6, human FcRIIIA-V158 protein (MednaBio, E1035) (human, UniProt P08637 17-208); assay: BLI
T6 construct: Bought; also called FcγRIIIA(V); FcgRIIIA(V)
How it was run: as §1

[6] = molecular target: T7, human FcRI protein (MednaBio, E1031) (human, UniProt P12314 16-288, limits assumed); assay: BLI
T7 construct: Bought; loaded on anti-penta-HIS biosensors; also called FcγRI
How it was run: as §1

[7] = molecular target: T8, human FcRIIIA-F158 protein (MednaBio, E1036) (human, UniProt P08637 17-208); assay: BLI
T8 construct: Bought; also called FcγRIIIA(F)
How it was run: as §1

[8] = molecular target: T9, human FcγRI expressed on CHO cells (human, UniProt P12314 16-374); assay: FACS, CHO cells expressing FcγRI
T9 construct: whole, on cells
Procedure: For FACS analysis of the IgG mutants' binding to different FcγRs, FcγR overexpressing CHO cells were harvested using trypsin-EDTA and were suspended in cold staining buffer (3% BSA in PBS). Test IgG mutants, which were diluted in staining buffer, were added into the cells. The mixture was incubated 4° C. for 2 hours, and then washed twice with cold staining buffer and re-suspended in PE-labeled anti-human IgG followed by incubation at 4° C. for 2 hours. The mixture was washed twice with staining buffer and re-suspended in 2% PFA in PBS for FACS.

[9] = molecular target: T3, human FcγRIIC expressed on CHO cells; assay: FACS, CHO cells expressing FcγRIIC
[10] = molecular target: T1, human FcRIIA protein (MednaBio, E1033); assay: BLI; remark: listed apart in the source
Procedure: (§2) These IgG mutants were tested for binding to a panel of human Fc receptors (FcRs), including FcRn, using the Octet Red96 System (ForteBio, Model #Red96). Human FcR proteins were purchased commercially (FcRn, MednaBio, E1032; FcRI, MednaBio, E1031; FcRIIA, MednaBio, E1033; FcRIIB/C, MednaBio, E1034; FcRIIIA-F158, MednaBio, E1036; FcRIIIA-V158, MednaBio, E1035; FcRIIIB, MednaBio, E1037). All Fey receptor assays were performed at pH 7.2; all FcRn assays were performed at pH 6. The Fey receptors were loaded onto anti-penta-HIS1K (ForteBio, Cat #18-5122) biosensors at a concentration of 20 μg/mL. The loaded biosensors was then be dipped into an 8-point 1:3 dilution series of the test IgG molecules (including controls and the mutants described herein) in PBS with 0.1% BSA, 0.02% Tween-20 (pH 7.2) at a starting concentration of 300 nM. Kinetic analysis was performed using a 1:1 binding model and global fitting.

[11] = molecular target: T2, human FcRIIB/C protein (MednaBio, E1034); assay: BLI; remark: listed apart in the source
Procedure: as §2

[12] = molecular target: T4, human FcRIIIB protein (MednaBio, E1037); assay: BLI; remark: listed apart in the source
Procedure: as §2

[13] = molecular target: T5, human FcRn protein (MednaBio, E1032); assay: BLI; remark: listed apart in the source
Procedure: as §2

[14] = molecular target: T6, human FcRIIIA-V158 protein (MednaBio, …); assay: BLI; remark: listed apart in the source
Procedure: as §2

[15] = molecular target: T7, human FcRI protein (MednaBio, E1031); assay: BLI; remark: listed apart in the source
Procedure: as §2

[16] = molecular target: T8, human FcRIIIA-F158 protein (MednaBio, …); assay: BLI; remark: listed apart in the source
Procedure: as §2

T6 sequence (P08637 17-208 F176V): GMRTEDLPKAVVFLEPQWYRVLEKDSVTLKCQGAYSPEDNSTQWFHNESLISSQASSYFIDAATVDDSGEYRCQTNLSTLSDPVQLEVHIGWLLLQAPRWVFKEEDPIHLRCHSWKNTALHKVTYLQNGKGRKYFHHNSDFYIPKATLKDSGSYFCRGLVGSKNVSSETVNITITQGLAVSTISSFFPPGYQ
T4 sequence (O75015 17-200 limits assumed): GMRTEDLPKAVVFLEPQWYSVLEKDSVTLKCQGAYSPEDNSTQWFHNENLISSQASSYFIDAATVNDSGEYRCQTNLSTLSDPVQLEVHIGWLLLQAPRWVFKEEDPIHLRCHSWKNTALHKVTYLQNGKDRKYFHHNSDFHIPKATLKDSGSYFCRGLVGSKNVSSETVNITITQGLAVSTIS
T7 sequence (P12314 16-288 limits assumed): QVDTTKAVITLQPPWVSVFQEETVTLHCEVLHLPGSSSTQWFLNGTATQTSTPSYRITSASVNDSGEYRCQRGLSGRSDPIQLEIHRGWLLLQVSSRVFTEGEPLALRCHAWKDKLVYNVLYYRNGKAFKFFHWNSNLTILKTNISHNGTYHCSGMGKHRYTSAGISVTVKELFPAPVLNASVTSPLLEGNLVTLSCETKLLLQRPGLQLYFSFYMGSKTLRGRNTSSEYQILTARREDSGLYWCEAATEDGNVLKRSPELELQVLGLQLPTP
T8 sequence (P08637 17-208 limits assumed): as the sequence (P08637 17-208 F176V) above, with V160F counted along it
T9 sequence (P12314 16-374): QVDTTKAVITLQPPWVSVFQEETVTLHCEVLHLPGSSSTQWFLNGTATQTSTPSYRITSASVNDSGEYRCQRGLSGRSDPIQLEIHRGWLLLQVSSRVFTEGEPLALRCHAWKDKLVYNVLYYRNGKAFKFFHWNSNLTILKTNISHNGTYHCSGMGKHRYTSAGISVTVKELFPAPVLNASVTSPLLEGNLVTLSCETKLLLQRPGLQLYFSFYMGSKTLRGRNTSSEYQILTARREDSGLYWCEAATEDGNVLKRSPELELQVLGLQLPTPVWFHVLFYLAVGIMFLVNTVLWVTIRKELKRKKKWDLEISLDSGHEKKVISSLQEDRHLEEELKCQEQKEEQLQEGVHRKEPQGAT

| Kd [1] [nM] | koff [1] [s⁻¹] | kon [1] [M⁻¹ s⁻¹] | Kd [2] [nM] | koff [2] [s⁻¹] | kon [2] [M⁻¹ s⁻¹] | binding result [3] | Kd [4] [nM] | koff [4] [s⁻¹] | kon [4] [M⁻¹ s⁻¹] | binding result [5] | binding result [6] | binding result [7] | binding result [8] | Binder | other results |
| --- | --- | --- | --- | --- | --- | --- | --- | --- | --- | --- | --- | --- | --- | --- | --- |
| 120 | 0.028 | 230000 | 170 | 0.052 | 310000 | no binding (tested: 300 nM) | 5.7 | 0.0052 | 910000 | no binding (tested: 300 nM) | no binding (tested: 300 nM) | no binding (tested: 300 nM) | no binding (tested: 10 ug/ml) | anti-CD137 IgG2 with Fc variant G2m7 (antibody, copies: 2 + 2) heavy: EVQLVQSGAEVKKPGESLRISCKGSGYSFSTYWISWVRQMPGKGLEWMGKIYPGDSYTNYSPSFQGQVTISADKSISTAYLQWSSLKASDTAMYYCARGYGIFDYWGQGTLVTVSSASTKGPSVFPLAPCSRSTSESTAALGCLVKDYFPEPVTVSWNSGALTSGVHTFPAVLQSSGLYSLSSVVTVPSSNFGTQTYTCNVDHKPSNTKVDKTVERKCCVECPPCPAPPVAGPSVFLFPPKPKDTLMISRTPEVTCVVVDVEHEDPEVQFNWYVDGVEVHNAKTKPREEQFNSTFRVVSVLTVVHQDWLNGKEYKCKVSNKGLPAPIEKTISKTKGQPREPQVYTLPPSREEMTKNQVSLTCLVKGFYPSDIAVEWESNGQPENNYKTTPPMLDSDGSFFLYSKLTVDKSRWQQGNVFSCSVMHEALHNHYTQKSLSLSPGK light: SYELTQPPSVSVSPGQTASITCSGDNIGDQYAHWYQQKPGQSPVLVIYQDKNRPSGIPERFSGSNSGNTATLTISGTQAMDEADYYCATYTGFGSLAVFGGGTKLTVLGQPKAAPSVTLFPPSSEELQANKATLVCLISDFYPGAVTVAWKADSSPVKAGVETTTPSKQSNNKYAASSYLSLTPEQWKSHRSYSCQVTHEGSTVEKTVAPTECS | binding result [9]: binds |
| 93 | 0.092 | 990000 | 500 | 0.26 | 510000 | no binding (tested: 300 nM) | 6.3 | 0.0053 | 850000 | no binding (tested: 300 nM) | no binding (tested: 300 nM) | no binding (tested: 300 nM) | no binding (tested: 10 ug/ml) | anti-CD137 IgG2 with Fc variant G2m8 (antibody, copies: 2 + 2) heavy: EVQLVQSGAEVKKPGESLRISCKGSGYSFSTYWISWVRQMPGKGLEWMGKIYPGDSYTNYSPSFQGQVTISADKSISTAYLQWSSLKASDTAMYYCARGYGIFDYWGQGTLVTVSSASTKGPSVFPLAPCSRSTSESTAALGCLVKDYFPEPVTVSWNSGALTSGVHTFPAVLQSSGLYSLSSVVTVPSSNFGTQTYTCNVDHKPSNTKVDKTVERKCCVECPPCPAPPVAGPSVFLFPPKPKDTLMISRTPEVTCVVVDVSHEDPEVQFNWYVDGVEVHNAKTKPREEQFNSTFRVVSVLTVVHQDWLNGKEYKCKVSNKGFPAPIEKTISKTKGQPREPQVYTLPPSREEMTKNQVSLTCLVKGFYPSDIAVEWESNGQPENNYKTTPPMLDSDGSFFLYSKLTVDKSRWQQGNVFSCSVMHEALHNHYTQKSLSLSPGK light: SYELTQPPSVSVSPGQTASITCSGDNIGDQYAHWYQQKPGQSPVLVIYQDKNRPSGIPERFSGSNSGNTATLTISGTQAMDEADYYCATYTGFGSLAVFGGGTKLTVLGQPKAAPSVTLFPPSSEELQANKATLVCLISDFYPGAVTVAWKADSSPVKAGVETTTPSKQSNNKYAASSYLSLTPEQWKSHRSYSCQVTHEGSTVEKTVAPTECS |  |
|  |  |  |  |  |  |  |  |  |  |  |  |  |  | anti-CD137 IgG4 with Fc variant G4m1 (antibody, copies: 2 + 2) heavy: EVQLVQSGAEVKKPGESLRISCKGSGYSFSTYWISWVRQMPGKGLEWMGKIYPGDSYTNYSPSFQGQVTISADKSISTAYLQWSSLKASDTAMYYCARGYGIFDYWGQGTLVTVSSASTKGPSVFPLAPCSRSTSESTAALGCLVKDYFPEPVTVSWNSGALTSGVHTFPAVLQSSGLYSLSSVVTVPSSSLGTKTYTCNVDHKPSNTKVDKRVESKYGPPCPPCPAPEFLSVFLFPPKPKDTLMISRTPEVTCVVVDVSQEDPEVQFNWYVDGVEVHNAKTKPREEQFNSTYRVVSVLTVLHQDWLNGKEYKCKVSNKGLPSSIEKTISKAKGQPREPQVYTLPPSQEEMTKNQVSLTCLVKGFYPSDIAVEWESNGQPENNYKTTPPVLDSDGSFFLYSRLTVDKSRWQEGNVFSCSVMHEALHNHYTQKSLSLSLGK light: SYELTQPPSVSVSPGQTASITCSGDNIGDQYAHWYQQKPGQSPVLVIYQDKNRPSGIPERFSGSNSGNTATLTISGTQAMDEADYYCATYTGFGSLAVFGGGTKLTVLGQPKAAPSVTLFPPSSEELQANKATLVCLISDFYPGAVTVAWKADSSPVKAGVETTTPSKQSNNKYAASSYLSLTPEQWKSHRSYSCQVTHEGSTVEKTVAPTECS | Kd [10]: 450 nM; koff [10]: 0.11 s⁻¹; kon [10]: 240000 M⁻¹ s⁻¹; Kd [11]: 250 nM; koff [11]: 0.11 s⁻¹; kon [11]: 420000 M⁻¹ s⁻¹; binding result [12]: no binding (tested: 300 nM); Kd [13]: 19 nM; koff [13]: 0.013 s⁻¹; kon [13]: 690000 M⁻¹ s⁻¹; binding result [14]: no binding (tested: 300 nM); Kd [15]: 130 nM; koff [15]: 0.097 s⁻¹; kon [15]: 740000 M⁻¹ s⁻¹; binding result [16]: no binding (tested: 300 nM) |
